# Source: PMC5103362 (Autophagy, 2016)
# T1: Vps15 (subunit of the purified yeast complex I) (S. cerevisiae, UniProt P22219 1-1454)
# T1 construct: Vps15, S. cerevisiae
# T1 sequence (looked up): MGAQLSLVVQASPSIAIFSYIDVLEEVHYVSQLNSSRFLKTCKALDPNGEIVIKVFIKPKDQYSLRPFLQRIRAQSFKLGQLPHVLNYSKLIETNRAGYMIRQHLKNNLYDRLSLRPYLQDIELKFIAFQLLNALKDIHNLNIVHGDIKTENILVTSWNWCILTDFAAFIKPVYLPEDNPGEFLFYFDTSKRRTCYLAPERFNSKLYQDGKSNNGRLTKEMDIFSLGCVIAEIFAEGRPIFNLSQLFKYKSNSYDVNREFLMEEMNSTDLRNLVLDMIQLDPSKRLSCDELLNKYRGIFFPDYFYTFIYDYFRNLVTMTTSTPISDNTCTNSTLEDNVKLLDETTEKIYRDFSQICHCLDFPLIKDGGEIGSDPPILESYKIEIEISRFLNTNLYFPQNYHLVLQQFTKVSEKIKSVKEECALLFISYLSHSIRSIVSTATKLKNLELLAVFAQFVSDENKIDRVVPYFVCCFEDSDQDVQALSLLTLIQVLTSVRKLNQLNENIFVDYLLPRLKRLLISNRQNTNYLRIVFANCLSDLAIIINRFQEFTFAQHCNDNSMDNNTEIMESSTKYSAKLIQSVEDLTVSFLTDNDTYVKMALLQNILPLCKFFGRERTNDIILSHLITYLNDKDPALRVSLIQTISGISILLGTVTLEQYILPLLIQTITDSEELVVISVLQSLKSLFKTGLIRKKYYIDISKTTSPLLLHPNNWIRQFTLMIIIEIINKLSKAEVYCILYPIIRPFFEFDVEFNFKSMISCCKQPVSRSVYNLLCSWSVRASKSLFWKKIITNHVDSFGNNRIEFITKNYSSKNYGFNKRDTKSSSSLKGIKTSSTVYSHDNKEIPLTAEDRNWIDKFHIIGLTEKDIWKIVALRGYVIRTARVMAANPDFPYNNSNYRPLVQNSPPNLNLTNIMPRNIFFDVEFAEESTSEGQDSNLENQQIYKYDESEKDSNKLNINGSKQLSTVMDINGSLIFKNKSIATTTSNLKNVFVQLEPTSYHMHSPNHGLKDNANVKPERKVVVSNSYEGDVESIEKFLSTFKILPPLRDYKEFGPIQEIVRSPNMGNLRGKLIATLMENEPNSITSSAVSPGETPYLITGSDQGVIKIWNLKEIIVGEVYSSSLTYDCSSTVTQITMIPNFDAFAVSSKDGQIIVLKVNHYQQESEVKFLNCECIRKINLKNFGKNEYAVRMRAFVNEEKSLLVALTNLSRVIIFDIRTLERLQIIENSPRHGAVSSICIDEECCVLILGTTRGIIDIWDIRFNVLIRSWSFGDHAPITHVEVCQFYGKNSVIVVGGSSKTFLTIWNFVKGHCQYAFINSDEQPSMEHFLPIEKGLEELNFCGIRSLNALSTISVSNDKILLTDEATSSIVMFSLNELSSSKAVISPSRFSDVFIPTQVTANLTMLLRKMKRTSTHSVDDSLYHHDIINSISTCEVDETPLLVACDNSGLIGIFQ
# B1: GST-Atg38 (1 to 78) (domain or fragment, S. cerevisiae, UniProt Q05789 1-78, looked up)
# chain: MSTLAEVYTIIEDAEQECRKGDFTNAKAKYQEAIEVLGPQNENLSQNKLSSDVTQAIDLLKQDITAKIQELELLIEKQ
# notes: Atg38, S. cerevisiae, MIT domain, residues 1 to 78; also called MIT domain alone; source: E. coli, purified (Glutathione Sepharose, eluted with glutathione); not shown: GST, N-terminal, kept
# B2: Atg38 C-terminal homodimerization domain (crystallized region, residues 119 to 211) (domain or fragment, S. cerevisiae, UniProt Q05789 119-211, looked up)
# chain: YQDTLSPINDPLLMSILNRLQFNLNNDIQLKTEGGKNSKNSEMKINLRLEQFKKELVLYEQKKFKEYGMKIDEITKENKKLANEIGRLRERWD
# notes: Atg38, S. cerevisiae, crystallized region, residues 119 to 211; Limits are those seen in the crystal; the proteolysed protein was not purified further; A selenomethionine derivative was used for phasing; also called Atg38 C-terminal domain; C-terminal region of Atg38; source: E. coli, purified full-length Atg38 subjected to limited proteolysis with subtilisin
# B3: Atg38 tailΔ (210 to 226 deleted), recombinant (domain or fragment, S. cerevisiae, UniProt Q05789 1-209, looked up)
# chain: MSTLAEVYTIIEDAEQECRKGDFTNAKAKYQEAIEVLGPQNENLSQNKLSSDVTQAIDLLKQDITAKIQELELLIEKQSSEENNIGMVNNNMLIGSVILNNKSPINGISNARNWDNPAYQDTLSPINDPLLMSILNRLQFNLNNDIQLKTEGGKNSKNSEMKINLRLEQFKKELVLYEQKKFKEYGMKIDEITKENKKLANEIGRLRER
# notes: Atg38, S. cerevisiae; GST fusions were eluted with glutathione or cut with TEV as needed; likely cut for SEC-MALS; source: E. coli, purified (Glutathione Sepharose, S75)
# B4: Atg14 (subunit of the purified yeast complex I) (natural protein, S. cerevisiae, UniProt P38270 1-344, looked up)
# chain: MHCPICHHRAHVVYCAHCINTSPSLLLKLKLDLILLKDENKELNGKVEQILNEAMNYDQLDIKRMEKKKDPLMNSLMKLDVLRMKKNNNLIRHRIEQLNERIYSKRNHISELKVEIDNYKCYKVGTGTDKLREQVEISDAKNKLAQVSKICESARDYKLNLLNNWFVIQKLQDNFQIPFAIAFQPLISLKNFRILPLAITNDSINIMWKYISFFSDILMIKLPYTNKICEQPMFEFSDSIQTVVQRLIKLIINILQICRHLKLVPSTPMDIPWLLDQYDVDGLFYNMVKRNKMKCRSVSLYWTFGMLYSMVLDNMNNPQRGHPARRTAPPPTVTGPHDRWYVVG
# notes: Atg14, S. cerevisiae
# B5: Atg38 stalkΔ (182 to 209 deleted), recombinant (natural protein, S. cerevisiae, UniProt Q05789 1-226, looked up)
# chain: MSTLAEVYTIIEDAEQECRKGDFTNAKAKYQEAIEVLGPQNENLSQNKLSSDVTQAIDLLKQDITAKIQELELLIEKQSSEENNIGMVNNNMLIGSVILNNKSPINGISNARNWDNPAYQDTLSPINDPLLMSILNRLQFNLNNDIQLKTEGGKNSKNSEMKINLRLEQFKKELVLYEQKKWDSLVESAKQRRDKQKN
# notes: GST fusions were eluted with glutathione or cut with TEV as needed; likely cut for SEC-MALS; source: E. coli, purified (Glutathione Sepharose, S75)
# B6: Vps34 (subunit of the purified yeast complex I) (enzyme, S. cerevisiae, UniProt P22543 1-875, looked up)
# chain: MSLNNITFCVSQDLDVPLKVKIKSLEGHKPLLKPSQKILNPELMLIGSNVFPSSDLIVSLQVFDKERNRNLTLPIYTPYIPFRNSRTWDYWLTLPIRIKQLTFSSHLRIILWEYNGSKQIPFFNLETSIFNLKDCTLKRGFESLKFRYDVIDHCEVVTDNKDQENLNKYFQGEFTRLPWLDEITISKLRKQRENRTWPQGTFVLNLEFPMLELPVVFIEREIMNTQMNIPTLKNNPGLSTDLREPNRNDPQIKISLGDKYHSTLKFYDPDQPNNDPIEEKYRRLERASKNANLDKQVKPDIKKRDYLNKIINYPPGTKLTAHEKGSIWKYRYYLMNNKKALTKLLQSTNLREESERVEVLELMDSWAEIDIDDALELLGSTFKNLSVRSYAVNRLKKASDKELELYLLQLVEAVCFENLSTFSDKSNSEFTIVDAVSSQKLSGDSMLLSTSHANQKLLKSISSESETSGTESLPIVISPLAEFLIRRALVNPRLGSFFYWYLKSESEDKPYLDQILSSFWSRLDKKSRNILNDQVRLINVLRECCETIKRLKDTTAKKMELLVHLLETKVRPLVKVRPIALPLDPDVLICDVCPETSKVFKSSLSPLKITFKTTLNQPYHLMFKVGDDLRQDQLVVQIISLMNELLKNENVDLKLTPYKILATGPQEGAIEFIPNDTLASILSKYHGILGYLKLHYPDENATLGVQGWVLDNFVKSCAGYCVITYILGVGDRHLDNLLVTPDGHFFHADFGYILGQDPKPFPPLMKLPPQIIEAFGGAESSNYDKFRSYCFVAYSILRRNAGLILNLFELMKTSNIPDIRIDPNGAILRVRERFNLNMSEEDATVHFQNLINDSVNALLPIVIDHLHNLAQYWRT
# notes: Vps34, S. cerevisiae
# B7: Atg38 capΔ (123 to 181 deleted), recombinant (natural protein, S. cerevisiae, UniProt Q05789 1-226, looked up)
# chain: MSTLAEVYTIIEDAEQECRKGDFTNAKAKYQEAIEVLGPQNENLSQNKLSSDVTQAIDLLKQDITAKIQELELLIEKQSSEENNIGMVNNNMLIGSVILNNKSPINGISNARNWDNPAYQDTFKEYGMKIDEITKENKKLANEIGRLRERWDSLVESAKQRRDKQKN
# notes: as for B5
# B8: Vps30/Atg6 (subunit of the purified yeast complex I) (natural protein, S. cerevisiae, UniProt Q02948 1-557, looked up)
# chain: MKCQTCHLPLQLDPSLEGLSLTQRNLLLSNNSIITATNENVISNKGIEAADNCGPQIPKERLRRLGEIQNIKDLNLKDDKLITDSFVFLNHDDDDNANITSNSREDQRYGNANGNDNKKANSDTSDGTSTFRDHDEEEQEATDEDENQQIQLNSKTLSTQVNAMTNVFNILSSQTNIDFPICQDCCNILINRLKSEYDDAIKERDTYAQFLSKLESQNKEISESNKEKQYSHNLSEKENLKKEEERLLDQLLRLEMTDDDLDGELVRLQEKKVQLENEKLQKLSDQNLMDLNNIQFNKNLQSLKLQYELSLNQLDKLRKINIFNATFKISHSGPFATINGLRLGSIPESVVPWKEINAALGQLILLLATINKNLKINLVDYELQPMGSFSKIKKRMVNSVEYNNSTTNAPGDWLILPVYYDENFNLGRIFRKETKFDKSLETTLEIISEITRQLSTIASSYSSQTLTTSQDESSMNNANDVENSTSILELPYIMNKDKINGLSVKLHGSSPNLEWTTAMKFLLTNVKWLLAFSSNLLSKSITLSPTVNYNDKTISGN
# notes: Vps30/Atg6, S. cerevisiae
# What was measured:
# [1] = target: T2, yeast complex I (Vps15-Vps34-Vps30-Atg14 heterotetramer) (S. cerevisiae, UniProt P22219 1-1454; P22543 1-875; Q02948 1-557; P38270 1-344); experiment: pull-down; GST affinity isolation: GST fusions of Atg38 on glutathione Sepharose, purified yeast complex I at 1.78 µM with 10-fold excess of GST fusion; 50 mM Tris pH 8.8, 150 mM NaCl, 1 mM TCEP, on ice 90 min; stained gel; conditions: both partners purified
# T2 construct: Vps15, S. cerevisiae, subunit of complex I; Vps34, S. cerevisiae, subunit of complex I; Vps30/Atg6, S. cerevisiae, subunit of complex I; Atg14, S. cerevisiae, subunit of complex I; expected mass 379 kDa; also called CI; heterotetrameric S. cerevisiae complex I; copies: 1 + 1 + 1 + 1
# [2] = target: the molecule itself; experiment: crystal structure; full-length Atg38 after limited proteolysis with subtilisin; 2.2 Å, MAD with selenomethionine protein
# [3] = target: the molecule itself; experiment: SEC-MALS; Atg38 full-length, MIT domain and deletion variants alone on S75 10/30; 20 mM Tris pH 7.9, 300 mM NaCl, 1 mM TCEP
# [4] = target: T1, Vps15 (subunit of the purified yeast …); experiment: SEC-MALS; purified yeast complex I (co-expressed, co-purified) and gel-filtration purified complex I + Atg38 on S200 10/30; 20 mM Tris pH 8.8, 150 mM NaCl, 1 mM TCEP; conditions: both partners purified
Binder,stoichiometry N [3],stoichiometry N [4],other results
B1,–,–,binding result [1]: binds
B2,–,–,binding result [2]: binds
B3,2,–,–
B4,–,1,–
B5,2,–,–
B6,–,1,–
B7,2,–,–
B8,–,1,–
